Tests used:
[1] = biological target: T1, recombinant human FcRn (FcRn alpha-chain with C-terminal BirA 10x-Histidine tag, with beta-2-microglobulin) (human, UniProt P55899 24-297; P61769 21-119); test: SPR; pH 6.0
[2] = biological target: T1, recombinant human FcRn (FcRn …); test: SPR; pH 7.4

Kd [1]: 33 nM
Kd [2]: 1220 nM
B1: Fc-MST-HN (IgG1 Fc fragment with M252Y, S254T, T256E, H433K, N434F) (domain or fragment)
chain: DKTHTCPPCPAPELLGGPSVFLFPPKPKDTLYITREPEVTCVVVDVSHEDPEVKFNWYVDGVEVHNAKTKPREEQYNSTYRVVSVLTVLHQDWLNGKEYKCKVSNKALPAPIEKTISKAKGQPREPQVYTLPPSRDELTKNQVSLTCLVKGFYPSDIAVEWESNGQPENNYKTTPPVLDSDGSFFLYSKLTVDKSRWQQGNVFSCSVMHEALKFHYTQKSLSLSP

Source: article PMC9568614 (2022)
